Source: US10851152B2, “Polymerized peptide and gel having collagen-like structure” (WASEDA UNIVERSITY, priority 2015, dated 2020)

Experiments:
MDA-MB-231 = assay: Cell adhesion assay on coated 96-well plate, MDA-MB-231; type: cell-based, Human; settings: coated 96-well plate
Experimental: D-MEM High Glucose, D-MEM Low Glucose and 0.5% trypsin/EDTA were purchased from Wako Pure Chemical Industries, Ltd. (Osaka); FBS, penicillin. streptomycin (100×) were purchased from Invitrogen (Thermo Fisher Scientific corporation). Human mammary gland cancer (MDA-MB-231) was purchased from ATCC; Human skin fibroblasts (HDF) were purchased from Cell Applications. MDA-MB-231 was cultured using DMEM High Glucose (10% FBS, 100 Units/ml penicillin, 100 μg/ml streptomycin), and then maintained; and HDF was cultured using DMEM Low Glucose (10% FBS, 100 Units/ml penicillin, 100 μg/ml streptomycin), and then maintained. When used in cell adhesion assay and Western blotting, the cells were treated with 0.05% trypsin/EDTA, and then collected in a 15 ml tube to be subjected to centrifugal treatment at 1,200 rpm for four minutes. After the removal of the supernatant, the cells were suspended with an incubation medium by which the cells were incubated at 37° C. for 20 to 30 min and then recovered. Such cell suspension was used for cell adhesion assay and Western blotting.
Type I collagen (KOKEN CO., LTD, Tokyo) and BSA (Jackson Immuno Research Laboratories Inc., USA), in an aqueous solution as 30 μg/ml, were added to a 96-well plate (Nunc MicroWell 96-Well Microplates) by an amount of 50 μl/well, followed by drying the sample for two nights. Collagen-like peptides having no Cys residue were prepared as aqueous solutions of 1 to 3 mg/ml, and then heated at 95° C. for 5 min, followed by storing them at 4° C. overnight to form the triple-helical structure. Then, they were diluted to 30 μg/ml, and then added to a 96-well plate in an amount of 50 μl/well followed by drying them for two nights. Collagen-like peptides having Cys residues were dissolved in a degassed 0.05% (v/v) TFA aqueous solution, followed by preparing to a concentration of 300 μg/ml, and then heating the sample at 80° C. for 5 min. […] Further, a mineral oil was layered on the peptide solution, and such peptide solution was then oxidized at room temperature until thiol could no longer be detected by Ellman's test. […]

[1] = Remaining thiol group (Ellman's reagent) in oxidative polymerization reaction; type: physicochemical; settings: 10% DMSO, peptide 1% (w/v)
Experimental: Degassed water was used to prepare a peptide solution having a concentration of 1.11% (w/v), and the solution was then put into a PCR tube. After heating this solution at 80° C. for 5 min, it was then left to sand still at 4° C. overnight. By adding DMSO to this solution, there was prepared a peptide solution having a final concentration of 10% DMSO, peptide 1% (w/v). The PCR tube was then filled with a mineral oil in a way such that the mineral oil covered the surface of the solution. In every measurement, the mineral oil was eliminated from the peptide solution to prepare a peptide solution for oxidation monitoring. Ellman's reagent was prepared in a way such that 9 mg/ml of DTNB was present in 50 mM of a phosphate buffer solution (pH 8.4). 33 mM phosphate buffer solution (pH 8.4) and Ellman's reagent 1.5 mg/ml were left to stand for […], then a light absorbance was then measured after a solution with a final concentration of peptide 0.167 mg/ml. Recorded were changes in absorbance with time, with a moment when DMSO was added being a starting point (0 hour). Since the Ellman's reagent generates 5-mercapto-2-nitrobenzoate (λ max=412 nm, ε=1.55×10^4) depending on the amount of thiol groups (referred to as “SH groups” hereunder) in the peptide, measured was a absorbance at 412 nm. After the measurement, optical path length was compensated by measuring absorbance at 997 nm and 900 nm.

[2] = Hydrogel formation judged by holding of a stainless ball; type: physicochemical; parameters: key to gel formation, Time (hour) 9 / gel formation, Time (hour) 12 / gel formation, Time (hour) 15 / gel formation, Time (hour) 24 / gel formation, Time (hour) 32 / gel formation, Time (hour) 74 / gel formation, Peptide concentration 0.1% (w/v) / gel formation, Peptide concentration 0.2% (w/v) / gel formation, Peptide concentration 0.3% (w/v) / gel formation, Peptide concentration 0.5% (w/v) / gel formation, Peptide concentration 0.7% (w/v) / gel formation, Peptide concentration 1.0% (w/v): ◯: Gelated; X: Failed to gelate; settings: for gel-forming capability / gel formation, Time (hour) 9 / gel formation, Time (hour) 12 / gel formation, Time (hour) 15 / gel formation, Time (hour) 24 / gel formation, Time (hour) 32 / gel formation, Time (hour) 74: 1% (w/v) peptide; for gel-forming capability: 10% DMSO, up to three days; for gel formation, Time (hour) 9: 9 hour; for gel formation, Time (hour) 12: 12 hour; for gel formation, Time (hour) 15: 15 hour; for gel formation, Time (hour) 24: 24 hour; for gel formation, Time (hour) 32: 32 hour; for gel formation, Time (hour) 74: 74 hour
Experimental: Degassed water was used to prepare a peptide solution having a concentration of 1.11% (w/v) or 1.66% (w/v), and the solution was then put into a PCR tube. After heating this solution at 80° C. for 5 min using a polymerase chain reaction (PCR) machine (TaKaRa PCR Thermal Cycler, TAKARA BIO INC.), the solution was then left to stand at 4° C. overnight. By adding DMSO and water to this solution, there was prepared a peptide solution having a concentration of 10% DMSO, 0.1 to 1.5% (w/v). The PCR tube was then filled with a mineral oil in a way such that the mineral oil covered the liquid surface, followed by allowing the solution to stand at room temperature for a given period of time to achieve a gel. Then, gel formation was determined by looking at whether a stainless ball could be held by the gel.

[3] = Hydrogel stability to reduction treatment (DTT) or water with pipetting; type: physicochemical; settings: water added instead of reducing solution; pipetting about 90 times/min
Experimental: There, verification was made on whether gel caused a collapse by breaking the disulfide cross-linking by a reduction treatment. A reducing solution of 100 μl (100 mM DTT, 50 mM phosphate buffer solution (pH 8.4)) or water was added to the hydrogel (30 μl) prepared. […] Then, pipetting procedure was respectively performed at a frequency of about 90 times/min and a volume of 100 μl/each time, using a yellow tip (up to 200 μl).

[4] = oxidizing conditions: room temperature, three days

gelatin
cell adhesion of MDA-MB-231 (MDA-MB-231): Significant cell adhesion was observed

YCC(POG)6PRG(POG)5CCY (YCCPPGPPGPPGPPGPPGPPGPRGPPGPPGPPGPPGPPGCCY; not fully specified; hydroxyproline; MOD_RES (5)..(5) 4-Hydroxyproline; MOD_RES (8)..(8) 4-Hydroxyproline; MOD_RES (11)..(11) 4-Hydroxyproline; MOD_RES (14)..(14) 4-Hydroxyproline; MOD_RES (17)..(17) 4-Hydroxyproline; MOD_RES (20)..(20) 4-Hydroxyproline; MOD_RES (26)..(26) 4-Hydroxyproline; MOD_RES (29)..(29) 4-Hydroxyproline; MOD_RES (32)..(32) 4-Hydroxyproline; MOD_RES (35)..(35) 4-Hydroxyproline; MOD_RES (38)..(38) 4-Hydroxyprolin) [YCC2]
time in which peptide turned into a gel [1]: 74 h
gel-forming capability ([2]; room temperature): capable of turning into gels
gel formation, Time (hour) 9 [2]: X
gel formation, Time (hour) 12 [2]: X
gel formation, Time (hour) 15 [2]: X
gel formation, Time (hour) 24 [2]: X
gel formation, Time (hour) 32 [2]: X
gel formation, Time (hour) 74 [2]: ◯
gel formation, Peptide concentration 0.3% (w/v) [2, 4]: X
gel formation, Peptide concentration 0.5% (w/v) [2, 4]: X
gel formation, Peptide concentration 0.7% (w/v) [2, 4]: X
gel formation, Peptide concentration 1.0% (w/v) [2, 4]: ◯
gel collapse on adding water [3]: gel collapse was observed

CCCC(POG)6PRG(POG)5CCGC [CCCC2]
time in which peptide turned into a gel [1]: 12 h
gel-forming capability ([2]; room temperature): capable of turning into gels
gel formation, Time (hour) 9 [2]: X
gel formation, Time (hour) 12 [2]: ◯
gel formation, Time (hour) 15 [2]: ◯
gel formation, Time (hour) 24 [2]: ◯
gel formation, Time (hour) 32 [2]: ◯
gel formation, Time (hour) 74 [2]: ◯
gel formation, Peptide concentration 0.1% (w/v) ([2]; oxidizing conditions: room temperature, three days, 0.1% (w/v)): X
gel formation, Peptide concentration 0.2% (w/v) ([2]; oxidizing conditions: room temperature, three days, 0.2% (w/v)): X
gel formation, Peptide concentration 0.3% (w/v) [2, 4]: ◯
gel formation, Peptide concentration 0.5% (w/v) [2, 4]: ◯
gel formation, Peptide concentration 0.7% (w/v) [2, 4]: ◯
gel formation, Peptide concentration 1.0% (w/v) [2, 4]: ◯
concentration at which peptide still turned into a gel ([2]; room temperature, three days): 0.3 % (w/v)
gel collapse on adding water [3]: gel collapse was not observed

(POG)6PRG(POG)5CC (PPGPPGPPGPPGPPGPPGPRGPPGPPGPPGPPGPPGCC; not fully specified; hydroxyproline; MOD_RES (2)..(2) 4-Hydroxyproline; MOD_RES (5)..(5) 4-Hydroxyproline; MOD_RES (8)..(8) 4-Hydroxyproline; MOD_RES (11)..(11) 4-Hydroxyproline; MOD_RES (14)..(14) 4-Hydroxyproline; MOD_RES (17)..(17) 4-Hydroxyproline; MOD_RES (23)..(23) 4-Hydroxyproline; MOD_RES (26)..(26) 4-Hydroxyproline; MOD_RES (29)..(29) 4-Hydroxyproline; MOD_RES (32)..(32) 4-Hydroxyproline; MOD_RES (35)..(35) 4-Hydroxyproline) [CC1]
ratio of SH amount ([1]; SH amount at 0 hour being 100%, 74 hours): approximately 0%
gel-forming capability ([2]; room temperature): did not turn into a gel

CCC(POG)6PRG(POG)5CCC (CCCPPGPPGPPGPPGPPGPPGPRGPPGPPGPPGPPGPPGCCC; not fully specified; hydroxyproline; MOD_RES (5)..(5) 4-Hydroxyproline; MOD_RES (8)..(8) 4-Hydroxyproline; MOD_RES (11)..(11) 4-Hydroxyproline; MOD_RES (14)..(14) 4-Hydroxyproline; MOD_RES (17)..(17) 4-Hydroxyproline; MOD_RES (20)..(20) 4-Hydroxyproline; MOD_RES (26)..(26) 4-Hydroxyproline; MOD_RES (29)..(29) 4-Hydroxyproline; MOD_RES (32)..(32) 4-Hydroxyproline; MOD_RES (35)..(35) 4-Hydroxyproline; MOD_RES (38)..(38) 4-Hydroxyprolin) [CCC2]
time in which peptide turned into a gel [1]: 24 h
gel-forming capability ([2]; room temperature): capable of turning into gels
gel formation, Time (hour) 9 [2]: X
gel formation, Time (hour) 12 [2]: X
gel formation, Time (hour) 15 [2]: X
gel formation, Time (hour) 24 [2]: ◯
gel formation, Time (hour) 32 [2]: ◯
gel formation, Time (hour) 74 [2]: ◯
gel formation, Peptide concentration 0.3% (w/v) [2, 4]: X
gel formation, Peptide concentration 0.5% (w/v) [2, 4]: ◯
gel formation, Peptide concentration 0.7% (w/v) [2, 4]: ◯
gel formation, Peptide concentration 1.0% (w/v) [2, 4]: ◯
gel collapse on adding water [3]: gel collapse was not observed
